Data from PMC5737080.
Where two headings read alike, the source gives them in different places.

Columns and labels:
[1] = molecular target: β-S109C/Q299C/R103S-(AF488)2 (E. coli) (UniProt P0A988); assay: stopped-flow fluorescence kinetics
[2] = molecular target: β-S109C/Q299C-(AF488)2 (E. coli) (UniProt P0A988); assay: other fluorescence titration
[3] = molecular target: β-S109C/Q299C/R103S-(AF488)2 (E. coli) (UniProt P0A988); assay: other fluorescence titration
[4] = molecular target: β-S109C/Q299C-(AF488)2 (E. coli) (UniProt P0A988); assay: other fluorescence titration; remark: listed apart in the source
[5] = molecular target: β-S109C/Q299C/R103S-(AF488)2 (E. coli) (UniProt P0A988); assay: other fluorescence titration; remark: listed apart in the source
β-S109C-AF488 (E. coli) = β-S109C-AF488 (E. coli) (UniProt P0A988); assay: stopped-flow fluorescence kinetics
[6] = molecular target: β-S109C/Q299C/R103S-(AF488)2 (E. coli) (UniProt P0A988); assay: stopped-flow fluorescence kinetics; remark: listed apart in the source
[7] = molecular target: β-R103C/I305C-(AF488)2 (E. coli) (UniProt P0A988); assay: stopped-flow fluorescence kinetics

koff, fast phase (k f) [1]: 0.046 s⁻¹
koff, slow phase (k s) [1]: 0.012 s⁻¹
Kd [2]: 5.3 nM
Kd [3]: 5 nM
Kd [4]: 7 nM
Kd [5]: 4.2 nM
maximum observed rate constant, slow phase (clamp opening step) (β-S109C-AF488 (E. coli)): 8 s⁻¹
koff, fast phase (k f) [6]: 0.039 s⁻¹
koff, slow phase (k s) [6]: 0.0098 s⁻¹
k close (reverse of step 2 of the bind-open-lock model) [7]: 4 s⁻¹
k open (step 2 of the bind-open-lock model) [7]: 9 s⁻¹
koff, fast phase (k f) [7]: 0.058 s⁻¹
koff, slow phase (k s) [7]: 0.011 s⁻¹
limiting observed rate constant, rapid phase of opening [7]: 11 s⁻¹
limiting observed rate constant, slow phase of opening [7]: 1.5 s⁻¹
Substance: E. coli clamp loader, γ complex (γ3δδ’ψχ subunits) (from UniProt P06710-2;P28630;P28631;P28905;P28632)
